Assay results as given in patent US12630630 (SHANGHAI HENLIUS BIOTECH, dated 2026).

B1: Clone M1 (antibody, human IgG4 S228P, lambda, V domains shown)
VH: QVQLQQWGAGLLKPSETLSLTCAVYGGSFSGYYWSWIRQPPGKGLEWIGEINHSGSTNYNPSLKSRVTISVDTSKNQFSLRLSSVTAADTAMYYCARFTGRPYYGMDVWGQGTTVTVSS
VL: LSYELTQPPSVSATPGQRVTISCSGSESNIGSHKVKWYQQFAGAAPRLLIHGNDQRRSGVPDRFSGSKSGTSASLAISGLQSEDEADYYCAAWDDSLNGRVFGGGTKLTVLG
notes: also called antibody clone M1
B2: Clone M1 #46 (antibody, human IgG4 S228P, lambda, V domains shown)
VH: QVQLQQWGAGLLKPSETLSLTCAVYGGSFSGYYWSWIRQPPGKGLEWIGEINHSGSTNYNPSLKSRVTISVDTSKNQFSLRLSSVTAADTAMYYCARFSGRPYYGMDVWGQGTTVTVSS
VL: LSYELTQPPSVSATPGQRVTISCSGSESNIGSHKVKWYQQFAGAAPRLLIHGNDQRRSGVPDRFSGSKSGTSASLAISGLQSEDEADYYCAAWDDSLYGRVFGGGTKLTVLG
B3: Clone M1 #21 (antibody, human IgG4 S228P, lambda, V domains shown)
VH: QVQLQQWGAGLLKPSETLSLTCAVYGGSFSGYYWSWIRQPPGKGLEWIGEINQSGSTNYNPSLKSRVTISVDTSKNQFSLRLSSVTAADTAMYYCARFTGRPYYGMDVWGQGTTVTVSS
VL: LSYELTQPPSVSATPGQRVTISCSGSESNIGSHKVKWYQQFAGAAPRLLIHGNDQRFSGVPDRFSGSKSGTSASLAISGLQSEDEADYYCAAWDDSLYGRVFGGGTKLTVLG
B4: Clone M1 #11 (antibody, human IgG4 S228P, lambda, V domains shown)
VH: QVQLQQWGAGLLKPSETLSLTCAVYGGSFSGYYWSWIRQPPGKGLEWIGEINHSGSTNYNPSLKSRVTISVDTSKNQFSLRLSSVTAADTAMYYCARFHGRPYYGMDVWGQGTTVTVSS
VL: LSYELTQPPSVSATPGQRVTISCSGSESNIGSHKVKWYQQFAGAAPRLLIHGNDQRRRGVPDRFSGSKSGTSASLAISGLQSEDEADYYCAAWDDSLYGRVFGGGTKLTVLG

target: T1, CD47 on human cells (Raji, Jurkat, red blood cells) (human, UniProt Q08722 19-311); assay: flow cytometry competition: antibody and a fixed concentration of biotin-human SIRPα-Fc co-incubated with CD47-expressing cells (Jurkat in Example 2; the legend also names Raji), streptavidin-PE
T1 construct: Endogenous CD47 on Raji, Jurkat and red blood cells; also called IAP; MER6
Description: Example 2. […] CD47-expressing cells (Jurkat) (1E5 cells/well) were washed and resuspended in FACS buffer (1×PBS with 2% FBS). […] Flow cytometric analyses were performed using the Cytomics FC 500 (Beckman Coulter Inc.).
IgG isotype control (an anti-PD1 antibody) were used as a negative control.

Going from B1 to B2, the “IC50 (read off the curve)” value falls from roughly 1 µg/mL to roughly 0.2 µg/mL (5-fold).

B3 and B4 are within 1.5-fold of each other in “IC50 (read off the curve)” value: roughly 0.08 µg/mL for the first, roughly 0.06 µg/mL for the second.
